According to patent US7297508 (Takeda / Millennium, dated 2007):

Biological target: the molecule itself
Test: X-ray crystal structure of apo FAPα (SEQ ID NO:3), homodimer

B1: FAPα (SEQ ID NO:3), secreted recombinant human fibroblast activation protein alpha, residues 27-760 of SEQ ID NO:1 with part of the gp67 signal sequence at the … (enzyme)
chain: ADPGRPSRVHNSEENTMRALTLKDILNGTFSYKTFFPNWISGQEYLHQSADNNIVLYNIETGQSYTILSNRTMKSVNASNYGLSPDRQFVYLESDYSKLWRYSYTATYYIYDLSNGEFVRGNELPRPIQYLCWSPVGSKLAYVYQNNIYLKQRPGDPPFQITFNGRENKIFNGIPDWVYEEEMLATKYALWWSPNGKFLAYAEFNDTDIPVIAYSYYGDEQYPRTINIPYPKAGAKNPVVRIFIIDTTYPAYVGPQEVPVPAMIASSDYYFSWLTWVTDERVCLQWLKRVQNVSVLSICDFREDWQTWDCPKTQEHIEESRTGWAGGFFVSTPVFSYDAISYYKIFSDKDGYKHIHYIKDTVENAIQITSGKWEAINIFRVTQDSLFYSSNEFEEYPGRRNIYRISIGSYPPSKKCVTCHLRKERCQYYTASFSDYAKYYALVCYGPGIPISTLHDGRTDQEIKILEENKELENALKNIQLPKEEIKKLEVDEITLWYKMILPPQFDRSKKYPLLIQVYGGPCSQSVRSVFAVNWISYLASKEGMVIALVDGRGTAFQGDKLLYAVYRKLGVYEVEDQITAVRKFIEMGFIDEKRIAIWGWSYGGYVSSLALASGTGLFKCGIAVAPVSSWEYYASVYTERFMGLPTKDDNLEHYKNSTVMARAEYFRNVDYLLIHGTADDNVHFQNSAQIAKALVNAQVDFQAMWYSDQNHGLSGLSTNHLYTHMTHFLKQCFSLSDHHHHHH
modifications: three Asn residues (chain A) or five Asn residues (chain B) carry covalently linked sugar molecules; positions not given
notes: Only residues 39-757 are seen in the structure; Expressed in Hi5 insect cells; also called Seprase; apo FAPα
B1: binds.
